This note sets out measurements from patent US20090093372A1.

This test has as its target human E-cadherin on human embryonic stem cells (hESCs; CyT203) (human) (UniProt P12830). The test is described as follows: cell-based or functional assay.
Sequence of UniProt P12830 (P12830 155-882 limits assumed): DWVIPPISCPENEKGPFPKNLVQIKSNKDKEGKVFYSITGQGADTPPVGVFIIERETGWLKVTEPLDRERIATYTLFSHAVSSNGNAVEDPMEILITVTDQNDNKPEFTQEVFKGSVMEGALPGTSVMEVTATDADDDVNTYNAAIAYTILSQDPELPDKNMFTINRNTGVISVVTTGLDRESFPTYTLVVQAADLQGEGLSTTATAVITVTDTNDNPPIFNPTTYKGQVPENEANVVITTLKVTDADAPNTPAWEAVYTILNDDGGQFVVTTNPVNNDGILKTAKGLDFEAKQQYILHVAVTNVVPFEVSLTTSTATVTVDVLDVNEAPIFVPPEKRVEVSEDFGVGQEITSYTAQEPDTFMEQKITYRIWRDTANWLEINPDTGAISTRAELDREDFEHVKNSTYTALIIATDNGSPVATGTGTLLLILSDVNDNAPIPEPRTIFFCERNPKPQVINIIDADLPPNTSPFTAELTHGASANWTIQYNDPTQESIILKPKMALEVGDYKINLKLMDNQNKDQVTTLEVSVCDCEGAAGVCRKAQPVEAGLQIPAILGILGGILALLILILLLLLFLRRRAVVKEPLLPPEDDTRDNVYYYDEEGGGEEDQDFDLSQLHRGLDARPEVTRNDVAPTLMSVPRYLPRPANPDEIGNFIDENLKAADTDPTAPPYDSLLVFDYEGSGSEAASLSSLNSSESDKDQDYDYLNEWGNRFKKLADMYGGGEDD

Take “mouse anti-human E-cadherin antibody (Zymed Cat. No. 13-1700)”: the percentage of CXCR4 positive cells (flow cytometry after 3 days of differentiation to definitive endoderm; antibody at 5 µg/mL on day 1) was determined as 93%.
